Reference: publication PMC11002074, “Lysyl oxidase-like 4 promotes the invasiveness of triple-negative breast cancer cells by orchestrating the invasive machinery formed by annexin A2 and S100A11 on the cell surface” (Frontiers in Oncology, 2024)

Biological target: T1, GST-annexin A2 (human, UniProt P07355 1-339)
T1 construct: annexin A2 (ANXA2), human cDNA cloned into pGEX6P1; also called GST-ANXA2; source: E. coli, purified (glutathione beads)
Assay: far-Western, overlay or dot blot; purified proteins (10 µg) dot-blotted on nitrocellulose in duplicate; incubated with bio-PLG (10 µg) together with S100A11 (10 µg); 1 mM Ca2+, 50 mM Tris-HCl pH 7.4; detected with streptavidin-HRP or anti-S100A11
Settings: both partners purified

T1 sequence (P07355 whole entry): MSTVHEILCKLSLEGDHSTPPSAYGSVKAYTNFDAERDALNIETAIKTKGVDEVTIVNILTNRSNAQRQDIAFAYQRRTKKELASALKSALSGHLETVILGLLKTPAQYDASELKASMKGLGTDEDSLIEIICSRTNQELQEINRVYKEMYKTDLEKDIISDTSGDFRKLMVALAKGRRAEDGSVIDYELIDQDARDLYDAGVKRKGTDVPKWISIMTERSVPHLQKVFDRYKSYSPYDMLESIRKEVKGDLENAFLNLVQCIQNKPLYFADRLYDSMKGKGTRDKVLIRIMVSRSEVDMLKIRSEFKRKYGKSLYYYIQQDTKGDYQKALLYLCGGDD

B1: S100A11 (recombinant, GST cleaved) (natural protein, human, UniProt P31949 1-105, looked up)
chain: MAKISSPTETERCIESLIAVFQKYAGKDGYNYTLSKTEFLSFMNTELAAFTKNQKDPGVLDRMMKKLDTNSDGQLDFSEFLNLIGGLAMACHDSFLKAVPSQKRT
notes: S100A11, human cDNA cloned into pGEX6P1; source: E. coli, purified (glutathione beads), GST cleaved by PreScission Protease and removed
- binding result: binds
